The values below are quoted from earlier work in article PMC6143783.

The target of data set [1] is GABAA receptor α1 TM3-TM4 loop (Homo sapiens) (UniProt P14867). Nature of the data set: ITC. Background: In ITC the heat of successive injections is recorded.
In data set [2] the target is GABAA receptor α3 TM3-TM4 loop (Homo sapiens) (UniProt P34903). Nature of the data set: ITC.
Sequence of GABAA receptor α3 TM3-TM4 loop (Homo sapiens) (P34903 359-457): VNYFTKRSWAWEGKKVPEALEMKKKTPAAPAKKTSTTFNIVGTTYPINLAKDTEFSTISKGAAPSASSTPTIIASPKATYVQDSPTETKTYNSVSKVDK

Sequence of gephyrin (Q03555 whole entry): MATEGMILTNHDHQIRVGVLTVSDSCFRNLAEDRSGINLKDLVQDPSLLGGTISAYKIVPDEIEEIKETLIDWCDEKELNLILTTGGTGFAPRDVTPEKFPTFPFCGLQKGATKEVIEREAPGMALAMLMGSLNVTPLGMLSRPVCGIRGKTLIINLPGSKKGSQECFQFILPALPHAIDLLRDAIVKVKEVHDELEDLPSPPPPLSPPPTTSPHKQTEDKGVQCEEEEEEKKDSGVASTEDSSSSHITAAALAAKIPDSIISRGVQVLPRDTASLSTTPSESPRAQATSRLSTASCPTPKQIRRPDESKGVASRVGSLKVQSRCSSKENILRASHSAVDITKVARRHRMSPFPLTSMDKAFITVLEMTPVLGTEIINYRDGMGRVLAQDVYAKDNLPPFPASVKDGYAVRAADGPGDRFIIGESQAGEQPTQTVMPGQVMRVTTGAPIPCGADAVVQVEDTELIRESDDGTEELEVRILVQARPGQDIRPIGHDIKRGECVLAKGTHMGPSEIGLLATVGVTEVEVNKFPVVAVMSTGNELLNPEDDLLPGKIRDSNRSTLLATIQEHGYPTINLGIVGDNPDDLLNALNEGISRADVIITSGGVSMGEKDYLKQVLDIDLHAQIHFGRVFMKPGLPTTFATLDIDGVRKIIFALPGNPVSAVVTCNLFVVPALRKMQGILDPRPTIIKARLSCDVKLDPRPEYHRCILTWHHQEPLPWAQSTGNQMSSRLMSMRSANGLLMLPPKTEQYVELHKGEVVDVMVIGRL
Sequence of GABAA receptor α1 TM3-TM4 loop (Homo sapiens) (P14867 334-420): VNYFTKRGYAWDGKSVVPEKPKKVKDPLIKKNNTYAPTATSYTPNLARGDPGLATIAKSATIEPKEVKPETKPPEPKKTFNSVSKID

Broadly, the Kd is the constant that tells how readily two partners part at equilibrium. Take gephyrin (from UniProt Q03555): the Kd is 17 µM in data set [1] and 5.3 µM in data set [2].
